Results as given in paper PMC9605926, “Safety of [^177Lu]Lu-NeoB treatment: a preclinical study characterizing absorbed dose and acute, early, and late organ toxicity” (European Journal of Nuclear Medicine and Molecular Imaging, 2022).

Tested on: healthy Balb/c mice
Test: Toxicity study, histopathology (5-point grade); 3 i.v. injections at 7-day interval; control group 2 = 3× 1200 pmol [175Lu]Lu-NeoB; treatment groups 1/2/3 = 3× 40 MBq/400 pmol, 80 MBq/800 pmol, 120 MBq/1200 pmol [177Lu]Lu-NeoB
Assay type: in vivo, mouse
Method: Five different experimental groups (10 male and 10 female healthy animals per group; n = 100) were included in the radiotoxicity study and treated as follows: control group 1: 3 × vehicle (PBS + kolliphor HS 15 (1 mg/mL)); control group 2: 3 × 1200 pmol [^175Lu]Lu-NeoB; treatment group 1: 3 × 40 MBq/400 pmol [^177Lu]Lu-NeoB; treatment group 2: 3 × 80 MBq/800 pmol [^177Lu]Lu-NeoB; and treatment group 3: 3 × 120 MBq/1200 pmol [^177Lu]Lu-NeoB.
Animals received 3 injections with an interval of 7 days between each injection.
At 5, 19, and 43 weeks after the first injection, 3–4 male and 3–4 female animals of each group were sacrificed by isoflurane overdose after a blood sample was taken by retro-orbital puncture. Hereafter, the axillary lymph nodes, mesenteric lymph nodes, skin, mammary fat pad, sternum, pancreas, adrenal glands, kidneys, spleen, liver, gallbladder, stomach, duodenum, jejunum, ileum, caecum, colon, rectum, testes (M), epididymis (M), seminal vesicles (M), prostate gland (M), ovaries (F), oviducts (F), uterus-cervix (F), vagina (F), bladder, ureters, sciatic nerve, skeletal muscle, femur, lungs, trachea, esophagus, thymus, thyroid gland, aorta, heart, brain, pituitary gland, eyes, harderian glands, tongue, spinal column, and the tail were collected and analyzed macroscopically. All organs and tissues were formalin fixed (4% buffered formaldehyde) and shipped to the European Research Biology Centre (ERBC, Pomezia, Rome, Italy) where histological sampling, embedding, sectioning (5 µm thick), and hematoxylin–eosin staining were performed according to standard guidelines. All organs and tissues were analyzed microscopically by an experienced pathologist. A 5-point grading scale was used: 1: minimal change, 2: mild change, 3: moderate change, 4: marked change, 5: severe change.

[1] = female wk 5, treatment group 1, grade 1
[2] = female wk 5, treatment group 1, grade 2
[3] = female wk 5, treatment group 2, grade 1
[4] = female wk 5, treatment group 2, grade 2
[5] = female wk 5, treatment group 3, grade 1
[6] = female wk 5, treatment group 3, grade 2
[7] = female wk 19, treatment group 1, grade 1
[8] = female wk 19, treatment group 1, grade 2
[9] = female wk 19, treatment group 2, grade 1
[10] = female wk 19, treatment group 2, grade 2
[11] = female wk 19, treatment group 3, grade 1
[12] = female wk 19, treatment group 3, grade 2
[13] = female wk 43, treatment group 1, grade 1
[14] = female wk 43, treatment group 1, grade 4
[15] = female wk 43, treatment group 2, grade 1
[16] = female wk 43, treatment group 2, grade 2
[17] = female wk 43, treatment group 3, grade 2
[18] = female wk 43, treatment group 3, grade 3
[19] = female wk 43, treatment group 3, grade 4
[20] = male wk 5, treatment group 1, grade 1
[21] = male wk 5, treatment group 1, grade 2
[22] = male wk 5, treatment group 3, grade 1
[23] = male wk 5, treatment group 3, grade 2
[24] = male wk 19, treatment group 1, grade 1
[25] = male wk 19, treatment group 1, grade 2
[26] = male wk 19, treatment group 2, grade 1
[27] = male wk 19, treatment group 2, grade 2
[28] = male wk 19, treatment group 3, grade 1
[29] = male wk 19, treatment group 3, grade 2
[30] = male wk 43, treatment group 1, grade 1
[31] = male wk 43, treatment group 1, grade 2
[32] = male wk 43, treatment group 2, grade 1
[33] = male wk 43, treatment group 2, grade 2
[34] = male wk 43, treatment group 3, grade 1
[35] = male wk 43, treatment group 3, grade 2
[36] = male wk 43, treatment group 3, grade 3
[37] = week 19, male treatment group 2

CC(C)CC(CC(C)C)NC(=O)[C@H](Cc1cnc[nH]1)NC(=O)CNC(=O)[C@@H](NC(=O)[C@H](C)NC(=O)[C@H](Cc1c[nH]c2ccccc12)NC(=O)[C@H](CCC(N)=O)NC(=O)[C@@H](Cc1ccccc1)NC(=O)COCC(=O)Nc1ccc(CNC(=O)CN2CCN(CC(=O)O)CCN(CC(=O)O)CCN(CC(=O)O)CC2)cc1)C(C)C [[^177Lu]Lu-NeoB, metal not drawn]
Adrenal glands subcapsular cell hyperplasia, incidence [1]: 1/3
Urinary bladder inflammatory cell foci, incidence [1]: 1/3
Adrenal glands subcapsular cell hyperplasia, incidence [2]: 1/3
Spleen extramedullary haematopoiesis, incidence [2]: 2/3
Adrenal glands subcapsular cell hyperplasia, incidence [3]: 3/3
Liver inflammatory cell foci, incidence [3]: 1/3
Urinary bladder inflammatory cell foci, incidence [3]: 1/3
Urinary bladder urothelium vacuolation, incidence [3]: 2/3
Urinary bladder inflammatory cell foci, incidence [4]: 2/3
Urinary bladder urothelium vacuolation, incidence [4]: 1/3
Adrenal glands subcapsular cell hyperplasia, incidence [5]: 1/3
Liver inflammatory cell foci, incidence [5]: 1/3
Thyroid gland follicular cyst/s, incidence [5]: 1/3
Urinary bladder inflammatory cell foci, incidence [5]: 1/3
Urinary bladder urothelium vacuolation, incidence [5]: 1/3
Spleen extramedullary haematopoiesis, incidence [6]: 1/3
Urinary bladder inflammatory cell foci, incidence [6]: 2/3
Urinary bladder urothelium vacuolation, incidence [6]: 2/3
Brain artifacts, incidence (female wk 5, treatment group 3, grade 3): 1/3
Adrenal glands subcapsular cell hyperplasia, incidence [7]: 1/3
Liver inflammatory cell foci, incidence [7]: 1/3
Pancreas inflammatory cell foci, incidence [7]: 2/3
Urinary bladder inflammatory cell foci, incidence [7]: 2/3
Urinary bladder urothelium vacuolation, incidence [7]: 2/3
Adrenal glands subcapsular cell hyperplasia, incidence [8]: 2/3
Liver inflammatory cell foci, incidence [8]: 1/3
Urinary bladder inflammatory cell foci, incidence [8]: 1/3
Kidneys hydronephrosis, incidence (female wk 19, treatment group 1, grade 4): 1/3
Adrenal glands subcapsular cell hyperplasia, incidence [9]: 2/3
Liver inflammatory cell foci, incidence [9]: 2/3
Pancreas inflammatory cell foci, incidence [9]: 1/3
Urinary bladder inflammatory cell foci, incidence [9]: 2/3
Urinary bladder urothelium vacuolation, incidence [9]: 2/3
Adrenal glands subcapsular cell hyperplasia, incidence [10]: 1/3
Spleen extramedullary haematopoiesis, incidence [10]: 1/3
Urinary bladder urothelium vacuolation, incidence [10]: 1/3
Adrenal glands subcapsular cell hyperplasia, incidence [11]: 1/3
Pancreas inflammatory cell foci, incidence [11]: 1/3
Urinary bladder inflammatory cell foci, incidence [11]: 1/3
Urinary bladder urothelium vacuolation, incidence [11]: 1/3
Adrenal glands subcapsular cell hyperplasia, incidence [12]: 2/3
Kidneys nephropathy, incidence [12]: 1/3
Pancreas inflammatory cell foci, incidence [12]: 1/3
Ureter(s) dilatation, incidence [12]: 1/3
Urinary bladder inflammatory cell foci, incidence [12]: 1/3
Urinary bladder urothelium vacuolation, incidence [12]: 1/3
Urinary bladder inflammatory cell foci, incidence (female wk 19, treatment group 3, grade 3): 1/3
Kidneys hydronephrosis, incidence (female wk 19, treatment group 3, grade 4): 3/3
Urinary bladder inflammatory cell foci, incidence [13]: 1/3
Urinary bladder urothelium vacuolation, incidence [13]: 1/3
Adrenal glands subcapsular cell hyperplasia, incidence (female wk 43, treatment group 1, grade 2): 2/3
Adrenal glands subcapsular cell hyperplasia, incidence (female wk 43, treatment group 1, grade 3): 1/3
Ovaries atrophy, incidence [14]: 3/3
Uterus endometrial hyperplasia, incidence [14]: 3/3
Liver inflammatory cell foci, incidence [15]: 3/4
Urinary bladder inflammatory cell foci, incidence [15]: 1/4
Urinary bladder urothelium vacuolation, incidence [15]: 1/4
Adrenal glands subcapsular cell hyperplasia, incidence [16]: 3/4
Lungs alveolar epithelialization, incidence [16]: 1/4
Adrenal glands subcapsular cell hyperplasia, incidence (female wk 43, treatment group 2, grade 3): 1/4
Ovaries atrophy, incidence (female wk 43, treatment group 2, grade 4): 3/4
Kidneys hydronephrosis, incidence (female wk 43, treatment group 2, grade 5): 1/4
Adrenal glands subcapsular cell hyperplasia, incidence [17]: 4/4
Pancreas inflammatory cell foci, incidence [17]: 1/4
Urinary bladder mineralization, incidence [17]: 1/4
Lungs B-adenoma, incidence [18]: 1/4
Ureter(s) dilation, incidence [18]: 1/4
Kidneys hydronephrosis, incidence [19]: 1/4
Ovaries atrophy, incidence [19]: 4/4
Kidneys hydronephrosis, incidence (female wk 43, treatment group 3, grade 5): 1/4
Adrenal glands subcapsular cell hyperplasia, incidence [20]: 1/3
Pancreas acinar cell degeneration, incidence [20]: 1/3
Spleen extramedullary haematopoiesis, incidence [21]: 2/3
Testes germ cell depletion, incidence [21]: 1/3
Thyroid gland ectopic thymus, incidence (male wk 5, treatment group 1, grade 3): 1/3
Testes germ cell depletion, incidence (male wk 5, treatment group 2, grade 1): 1/3
Thyroid gland ectopic thymus, incidence (male wk 5, treatment group 2, grade 3): 1/3
Prostate gland inflammatory cell foci, incidence [22]: 2/3
Testes germ cell depletion, incidence [22]: 1/3
Urinary bladder inflammatory cell foci, incidence [22]: 3/3
Urinary bladder urothelium vacuolation, incidence [22]: 2/3
Heart inflammatory cell foci, incidence [23]: 1/3
Pancreas mineralization, incidence [23]: 1/3
Urinary bladder mineralization, incidence [23]: 1/3
Urinary bladder urothelium vacuolation, incidence [23]: 1/3
Adrenal glands subcapsular cell hyperplasia, incidence [24]: 1/3
Testes germ cell depletion, incidence [24]: 2/3
Adrenal glands subcapsular cell hyperplasia, incidence [25]: 1/3
Spleen extramedullary haematopoiesis, incidence [25]: 1/3
Thyroid gland ectopic thymus, incidence (male wk 19, treatment group 1, grade 3): 1/3
Adrenal glands subcapsular cell hyperplasia, incidence [26]: 1/3
Urinary bladder inflammatory cell foci, incidence [26]: 2/3
Urinary bladder urothelium vacuolation, incidence [26]: 3/3
Adrenal glands subcapsular cell hyperplasia, incidence [27]: 1/3
Pancreas inflammatory cell foci, incidence [27]: 2/3
Kidneys hydronephrosis, incidence (male wk 19, treatment group 2, grade 3): 1/3
Kidneys hydronephrosis, incidence (male wk 19, treatment group 2, grade 4): 2/3
Adrenal glands subcapsular cell hyperplasia, incidence [28]: 2/3
Urinary bladder urothelium vacuolation, incidence [28]: 1/3
Adrenal glands subcapsular cell hyperplasia, incidence [29]: 1/3
Spleen extramedullary haematopoiesis, incidence [29]: 1/3
Thyroid gland ectopic thymus, incidence (male wk 19, treatment group 3, grade 3): 1/3
Kidneys hydronephrosis, incidence (male wk 19, treatment group 3, grade 4): 2/3
Adrenal glands subcapsular cell hyperplasia, incidence [30]: 2/3
Kidneys inflammatory cell foci, incidence [30]: 1/3
Kidneys nephropathy, incidence [30]: 2/3
Pancreas acinar cell degeneration, incidence [30]: 1/3
Pancreas inflammatory cell foci, incidence [30]: 1/3
Skin inflammatory cell foci, incidence [30]: 1/3
Skin scab formulation, incidence [30]: 1/3
Urinary bladder inflammatory cell foci, incidence [30]: 1/3
Adrenal glands subcapsular cell hyperplasia, incidence [31]: 1/3
Pancreas inflammatory cell foci, incidence [31]: 2/3
Adrenal glands subcapsular cell hyperplasia, incidence [32]: 2/4
Kidneys nephropathy, incidence [32]: 1/4
Urinary bladder inflammatory cell foci, incidence [32]: 2/4
Urinary bladder urothelium vacuolation, incidence [32]: 1/4
Adrenal glands subcapsular cell hyperplasia, incidence [33]: 1/4
Kidneys nephropathy, incidence [33]: 1/4
Pancreas inflammatory cell foci, incidence [33]: 2/4
Urinary bladder inflammatory cell foci, incidence [33]: 1/4
Adrenal glands subcapsular cell hyperplasia, incidence (male wk 43, treatment group 2, grade 3): 1/4
Kidneys hydronephrosis, incidence (male wk 43, treatment group 2, grade 4): 2/4
Adrenal glands subcapsular cell hyperplasia, incidence [34]: 3/4
Kidneys nephropathy, incidence [34]: 1/4
Liver inflammatory cell foci, incidence [34]: 2/4
Pancreas inflammatory cell foci, incidence [34]: 2/4
Skin inflammatory cell foci, incidence [34]: 1/4
Testes germ cell depletion, incidence [34]: 1/4
Adrenal glands subcapsular cell hyperplasia, incidence [35]: 1/4
Kidneys cyst/s, incidence [35]: 1/4
Epididymides spermatic granuloma, incidence [36]: 1/4
Ureter(s) dilation, incidence [36]: 1/4
Kidneys hydronephrosis, incidence (male wk 43, treatment group 3, grade 4): 3/4
Cytoplasmic vacuolation of urothelial cells, incidence (week 5, female treatment group 2, minimal or mild): 3/3
Cytoplasmic vacuolation of urothelial cells, incidence (week 5, female treatment group 3, minimal or mild): 3/3
Cytoplasmic vacuolation of urothelial cells, incidence (week 5, male treatment group 3, minimal or mild): 3/3
Cytoplasmic vacuolation of urothelial cells, incidence (week 19, all female treatment groups): 7/9
Hydronephrosis, incidence (week 19, female treatment group 1): 1/3
Hydronephrosis, incidence (week 19, female treatment group 3): 3/3
Cytoplasmic vacuolation of urothelial cells, incidence [37]: 3/3
Hydronephrosis, incidence [37]: 3/3
Hydronephrosis, incidence (week 19, male treatment group 3): 2/3
Marked ovarian atrophy, incidence (week 43, all treated females): 10/11
Marked or severe hydronephrosis, incidence (week 43, female treatment group 2): 1/4
Marked or severe hydronephrosis, incidence (week 43, female treatment group 3): 2/4
Marked or severe hydronephrosis, incidence (week 43, male treatment group 2): 2/4
Marked or severe hydronephrosis, incidence (week 43, male treatment group 3): 3/4
